Target: Viperin-Flag (UniProt Q8WXG1)
Sequence of UniProt Q8WXG1 (Q8WXG1 whole entry): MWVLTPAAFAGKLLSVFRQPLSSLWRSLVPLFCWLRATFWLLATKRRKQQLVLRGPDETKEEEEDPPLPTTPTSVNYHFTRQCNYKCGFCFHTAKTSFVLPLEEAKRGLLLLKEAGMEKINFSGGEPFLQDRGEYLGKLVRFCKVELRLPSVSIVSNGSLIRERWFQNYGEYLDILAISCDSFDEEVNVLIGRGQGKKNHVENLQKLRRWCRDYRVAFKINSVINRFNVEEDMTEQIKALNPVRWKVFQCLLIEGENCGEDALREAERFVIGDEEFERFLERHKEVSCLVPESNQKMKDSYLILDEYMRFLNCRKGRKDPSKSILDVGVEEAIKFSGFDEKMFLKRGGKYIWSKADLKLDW

“gD-EYFP (from UniProt Q69091 26-394) (natural protein)” gave an IRF7/6D-induced IFN-β promoter luciferase activity in HEK293T; gD-EYFP and Viperin-Flag together against gD or viperin alone of 2 fold.

Source: PMC6917645
